# According to the nanobody polyreactivity screen of Harvey et al. (2022):
# Assay: yeast display, Sf9 membrane polyspecificity reagent, FACS + sequencing; frameworks hold sequencing errors
# In short: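 A synthetic nanobody library was expressed on Saccharomyces cerevisiae BJ5465 by galactose induction for 36–48 hours. The library was stained for 1 hour at 4 °C with 10% biotinylated, detergent-solubilized Sf9 membrane reagent and enriched with streptavidin microbeads before FACS. Low and high (top ~1%) gates were set on anti-HA fluorescence for expression and streptavidin fluorescence for reagent binding, and each polyreactivity label reflects the gate of origin.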
row,Sequence,polyreactivity (PSR sort gate)
1,QVQLVESGGGLVQAGGSLRLSCAASGFTFLTYAMGWYRQAPGKERELVAAINNSGGRTYYADSVKGRFTISRDNAKNTVYLQMNSLKPEDTAVYYCAADYLRGKHRYGYWGQGTQVTVSS,high polyreactivity
2,QVQLVESGGGLVQAGGSLRLSCAASGFTFLYNAMGWYRQAPGKERELVASIRTGTGTYYADSVKGRFTISRDNAKNTVYLQMNSLKPEDTAVYYCAAENFYPYTYYASDYWGQGTQVTVSS,high polyreactivity
3,QVQLVESGGGLVQAGGSLRLSCAASGFTFNANAMGWYRQAPGKERELVADISLSGGRTYYADSVKGRFTISRDNAKNTVYLQMNSLKPEDTAVYYCAASPDGSFRRFSRVVSGDYWGQGTQVTVSS,high polyreactivity
4,QVQLVESGGGLVQAGGSLRLSCAASGFTFNANAMGWYRQAPGKERELVAVNTRSGGRTYYADSVKGRFTISRDNAKNTVYLQMNSLKPEDTAVYYCAKEGPSRVYQGTDSASDYWGQGTQVTVSS,high polyreactivity
5,QVQLVESGGGLVQAGGSLRLSCAASGFTFNDYAMGWYRQAPGKERELVAAIDWSGGRTYYADSVKGRFTISRDNAKNTVYLQMNSLKPEDTAVYYCATEYYDGYFPTFDYDYWGQGTQVTVSS,low polyreactivity
6,QVQLVESGGGLVQAGGSLRLSCAASGFTFNDYAMGWYRQAPGKERELVAAISKSGSRTYYADSVKGRFTISRDNAMNTVYLQMNSLKPEDTAVYYCNALPSYYGTYDYWGQGTQVTVSS,high polyreactivity
7,QVQLVESGGGLVQAGGSLRLSCAASGFTFNFYAMGWYRQAPGKERELVASITSSGARTYYADSVKGRFTISRDNAKNSVYLQMNSLKPEDTAVYYCAARVYRYSASRAYDYWGQGTQVTVSS,high polyreactivity
8,QVQLVESGGGLVQAGGSLRLSCAASGFTFNGYAMGWYRQAPGKERELVAGITRRGGITYYADSVKGRFTISRDNAKNTVYLQMNCLKPEDTAVYYCARDYIGHALIHHASLYYYWGQGTQVTVSS,high polyreactivity
9,QVQLVESGGGLVQAGGSLRLSCAASGFTFNLYDMGWYRQAPGKERELVAAINWSGGTYYADSVKGRFTISRDNAKNTVYLQMNSLKPEDPAVYYCAADFPYTPWSYHHHVWSPDFDYWGQGTQVTVSS,low polyreactivity
10,QVQLVESGGGLVQAGGSLRLSCAASGFTFNPNAMGWYRQAPGKERELVAPITRSGGSTYYADSVKGRFTISRDNAKNTVYLQMNSLKPEDTAVYYCNAPFRVSTTRRRYPGIDSHYYWGQGTQVTVSS,high polyreactivity
11,QVQLVESGGGLVQAGGSLRLSCAASGFTFNQNAMGWYRQAPGKERELVAAISASGGSTYYADSVKGRFTISRDNAKNTVYLQMNSLKPEDTAVYYCAARGTYRYTKYNYWGQGTQVTVSS,high polyreactivity
12,QVQLVESGGGLVQAGGSLRLSCAASGFTFNRNAMGWYRQAPGKERELVAAISWSGGSTYYADSVKGRFTISRDNAKYTVYLQMHSLKPEDTAVYYCAQGYRRVYGPFYYWGQGTQVTVSS,low polyreactivity
13,QVQLVESGGGLVQAGGSLRLSCAASGFTFNRYAMGWYRQAPGQERELVAAISRSGGSTSYADSVKGRFTISRDNAKKTVYLPMHSLKPEDTAVYYCAADRVWYLYYDYNYWGQGTQVTVSS,high polyreactivity
14,QVQLVESGGGLVQAGGSLRLSCAASGFTFNSYAMGWYRQAPGKERELVAAITWRGGSTYADSVKGRFTISRDNAKNTVYLQMNSLKPEDTAVYYCNAVSDVKRYDYWGQGTQVTVSS,high polyreactivity
15,QVQLVESGGGLVQAGGSLRLSCAASGFTFNTNAMGWYRQAPGKETELVAAITWTGGRTYYADSVKGRFTISRDNAKNTVHLQMNSLKPEDTAVYYCAAESFGYSIDITDHEYWGQGTQVTVSS,high polyreactivity
16,QVQLVESGGGLVQAGGSLRLSCAASGFTFNYNARGWYSQAPGNDRELVAAIRRSGGSTYYADSGKGRFTISRDNAKNTVYLQMNSLKPEDTAVYYCAARQSFLYGYWGQGTQVTVSS,high polyreactivity
17,QVQLVESGGGLVQAGGSLRLSCAASGFTFNYYAMGWYRQAPGKEREFVAAISRSAGSTYYADSVKGRFTISRDNAKNTVYLQMNSLKPEDTAVYYCAADPRSKGFYYGYDYWGQGTQVTVSS,high polyreactivity
18,QVQLVESGGGLVQAGGSLRLSCAASGFTFNYYAMGWYRQAPGKERELVAAISGRGGSTYYADSVKGRFTISRDNAKNTVYLQMNSLKPEDTAVYYCAADYWYDYYSTEYDYWGQGTQVTVSS,low polyreactivity
19,QVQLVESGGGLVQAGGSLRLSCAASGFTFPANDMGWYIQAPGKERELVATITWSGGNTYYADSVKGRFTISRDNAKNTVYLQMNSLKPEDTAVYYCAKDYDPYHEQQSSEHDDYWGQGTQVTVSS,low polyreactivity
20,QVQLVESGGGLVQAGGSLRLSCAASGFTFPDNAMGWYRQAPGKERELVAAITTSGGRTYYADSVKGRFTISRDNAKNTVYLQMNSLKPEDTAVYYCARPSRRTGREYGYWGQGTQVTVSS,high polyreactivity
21,QVQLVESGGGLVQAGGSLRLSCAASGFTFPDYAMGWYRQAPGKERELVAAISSDCSTYYADSVKGRFTISRDNAKNTVYLQMNSLKPEDTAVYYCAAYVVWLYGYDYWGQGTQVTVSS,low polyreactivity
22,QVQLVESGGGLVQAGGSLRLSCAASGFTFPGNAMGWYRQAPGKEREFVAAITRSSGSTSYADSVKGRFTISRDNAKNTVYLQMNSLKPDDTAVYRDYWGLGTQVTVSS,low polyreactivity

row,Sequence,polyreactivity (PSR sort gate)
1,QVQLVESGGGLVQAGGSLRLSCAASGFTFPLNAMGWYRQAPGKERELVAAITNGGTTYYADSVKGRFTISRDNAKNTVYLQMNSLKPEDTAVYYCNAQATPYEGRYDESEYDYWGQGTQVTVSS,low polyreactivity
2,QVQLVESGGGLVQAGGSLRLSCAASGFTFPLNAMGWYRQAPWKERELVAAITNGGTTYYADSVKGRFTISRDNAKNTVYLQMNSLKPEDTGVYYCAAYTYRYGSFKYGYWGQGTQVTVSS,low polyreactivity
3,QVQLVESGGGLVQAGGSLRLSCAASGFTFPNNAMGWYRQAPGKERELVAAITWSGGSTYADSVKGRFTISRDNAKNTVYLQMNSLKPEDTAVYYCNTRGTYLSKTLPSAYDYWGQGTQVTVSS,low polyreactivity
4,QVQLVESGGGLVQAGGSLRLSCAASGFTFPNYAMGWYRQAPGKERELVAAITSGGGRTNYADSVKGRFTISRDNAKNTVYLQMNSLKPEDTAVYYCNAEKTYLGSRYRPYNYWGQGTQVTVSS,low polyreactivity
5,QVQLVESGGGLVQAGGSLRLSCAASGFTFPNYAMGWYRQAPGKERELVAAITSGGGRTNYADSVKGRFTISRDNAKNTVYLQMNSLKPVDTAVYYCAKTRVRGSEFGYWGQGTQVTVSS,low polyreactivity
6,QVQLVESGGGLVQAGGSLRLSCAASGFTFPRNVMGWYRQAPGKERELVATISSGGRTNYADSVKGRFTISRDNAKNTVYLQMNSLKPEDTAVYYCAARVYTYYYDLHKRYYWGQGTQVTVSS,high polyreactivity
7,QVQLVESGGGLVQAGGSLRLSCAASGFTFPRYAMGWYRQAPGKERELVAAISYRGGSTYYADSVKGRFTISRDTAKNTVYLQMNSLKPEDTAVSYCNAVGGPVRGYPYDYWGQGTQVTVSS,high polyreactivity
8,QVQLVESGGGLVQAGGSLRLSCAASGFTFPRYAMGWYRQAPGKERELVAAITTSVGNTYYADSVKGRFTISRDNAKNTVYLQMNSLKPEDTAVYYCSTIYDHFDYWGQGTQVTVSS,low polyreactivity
9,QVQLVESGGGLVQAGGSLRLSCAASGFTFPRYAMGWYRQAPGKVRQLVAAISYRGGRTYYADSVKWRFTISRDNAKNTVFLQMNSLKPEDTAVYYCAADKTPSARYDYWGQGTQVTVSS,high polyreactivity
10,QVQLVESGGGLVQAGGSLRLSCAASGFTFPSYAMAWYRQDPGKEREFVAGITKGGGNTYYADAVKGRFTISRDNAKNTVYLQKNSLKQEDTAVYYCSADRSSFYWSHGTVYGYDYWGQGTQVTVSS,low polyreactivity
11,QVQLVESGGGLVQAGGSLRLSCAASGFTFPSYAMGWYRQAPGKERELVAAISQRGGSTYYADSVKGRFTISRDNAKNTVYLQMNSLKPEDTAVYYCAALAPRTGRPTYGYWGQGTQVTVSS,low polyreactivity
12,QVQLVESGGGLVQAGGSLRLSCAASGFTFPSYAMGWYRQAPGKERELVAAISSRGGSTYYADSVKGRFTISRDNAKNTVYLQMNSLKPEDTAVYYCNRLQVYSYYPYYPWYNYWGQGTQVTVSS,high polyreactivity
13,QVQLVESGGGLVQAGGSLRLSCAASGFTFPTYAMGWYRQAPGKERELVAAISTSGARTYYADSVKGRFTISRDNAKNTVYLQMNSLKPEDTAVYYCAAVFKAGSAYDYWGQGTQVTVSS,high polyreactivity
14,QVQLVESGGGLVQAGGSLRLSCAASGFTFPVYAMGWYRQAPGKEREFVAAITYIGGSTYADSVKGRFTISRDNAKNTVYLQMNSLKPEDTAVYYCNADDARLFDYWGQGTQVTVSS,low polyreactivity
15,QVQLVESGGGLVQAGGSLRLSCAASGFTFPWNVMGWYRQAPGKERELVAAITYDGGGTYADSVKGRFTISRDNAKNTVYLQMNSLKPEDTEVYFCNADLIYGEVYDYWGQGTQVTVSS,low polyreactivity
16,QVQLVESGGGLVQAGGSLRLSCAASGFTFPWYAMGWYRQAPGKERELVASISYRGDSTYYSDSVKGRFTISRDNAKNTVYLQMNSLKPEDTAVYYCADDYLWYNYAGQVDHDYDYWGQGTQVTVSS,low polyreactivity
17,QVQLVESGGGLVQAGGSLRLSCAASGFTFPYNAMGWYRQAPGKERELVAAISSTGGITYYADSVKGRFTISRDNEKNTVYLQMNSLKPEDTAVYYCNAGYPDYDWTWWHISYDYWGQGTQVTVSS,low polyreactivity
18,QVQLVESGGGLVQAGGSLRLSCAASGFTFPYNAMGWYSQARGKERELVAAISRSGTRTYYADSVKGRFTISRDNAKNTVYLQMNSLKPEDTAVYYCNARAAGYSRRGPGFDYWGQGTQVTVSS,high polyreactivity
19,QVQLVESGGGLVQAGGSLRLSCAASGFTFPYYAMGWYRQAPGKERELVAAITGRGGSTYYADSVKGRFTISRDNAKNTVYLQMNSLKPVDTAVFYCNAVRFAIHLADPYDYWGQGTQVTVSS,high polyreactivity
20,QVQLVESGGGLVQAGGSLRLSCAASGFTFPYYAMGWYSQAPGKERELVAAINRSGGITYYADSVRGRFTISRDNAKNTVYLQMKSLKPEDTAVYYCAAPSFGYRTWSVFGSGHDYWGQGTQVTVSS,high polyreactivity
21,QVQLVESGGGLVQAGGSLRLSCAASGFTFPYYSMGWYRQAPGTERELVAPISYNGGSTYYADSVMGRFTISRDNAKNTVYLQMNSRNPEDTAVYYCNAVYSDSGVVGYYYWGQGTQVTVSS,high polyreactivity
